Laboratory results: patent US20140141011A1 (SCHERING, published 2014)
Values joined by “and” are separate entries in the source; they are usually repeats but may differ in a detail not shown here. Equal entries are not always repeated.

B1: Cyno-ized anti-human TSLP 23B12 antibody (antibody)
heavy: SQVQLVESGGGVVQPGRSLRLSCAASGYIFTDYAMHWVRQAPGKGLEWVATFIPLLDTSDYNQNFKGRFTISRDNSKNTLYLQMNSLRAEDTAVYYCARMGVTHSYVMDAWGQGTLVTVSSASTKGPSVFPLAPSSRSTSESTAALGCLVKDYFPEPVTVSWNSGSLTSGVHTFPAVLQSSGLYSLSSVVTVPSSSLGTQTYVCNVNHKPSNTKVDKRVEIKTCGGGSKPPTCPPCPAPELLGGPSVFLFPPKPKDTLMISRTPEVTCVVVDVSQEDPDVKFNWYVNGAEVHHAQTKPRETQYNSTYRVVSVLTVTHQDWLNGKEYTCKVSNKALPAPIQKTISKDKGQPREPQVYTLPPSREELTKNQVSLTCLVKGFYPSDIVVEWESSGQPENTYKTTPPVLDSDGSYFLYSKLTVDKSRWQQGNVFSCSVMHEALHNHYTQKSLSLSPGK
light: DIQMTQSPSSLSASVGDRVTITCRASQPISISVHWYQQKPGKAPKLLIYFASQSISGVPSRFSGSGSGTDFTLTISSLQPEDFATYYCQQTFSLPYTFGQGTKVEIKRTVAAPSVFIFPPSEDQVKSGTVSVVCLLNNFYPREASVKWKVDGVLKTGNSQESVTEQDSKDNTYSLSSTLTLSSTDYQSHNVYACEVTHQGLSSPVTKSFNRGEC
notes: Rat 23B12 CDRs on human VL kappa-I / VH-III frameworks fused to cynomolgus IgG constant domains, produced in CHO cells; also called cy23B12; Cynoized anti hTSLP mAb 23B12 (782+MAFA19/781MAFA7)
B2: Humanized anti hu TSLP mAb 23B12 (VL Y49) (antibody, human IgG1, kappa)
heavy: not shown
light: EIVLTQSPGTLSLSPGERATLSCRASQPISISVHWYQQKPGQAPRLLIYFASQSISGIPDRFSGSGSGTDFTLTISRLEPEDFAVYYCQQTFSLPYTFGQGTKVEIKRTVAAPSVFIFPPSDEQLKSGTASVVCLLNNFYPREAKVQWKVDNALQSGNSQESVTEQDSKDSTYSLSSTLTLSKADYEKHKVYACEVTHQGLSSPVTKSFNRGEC
notes: also called hu23B12(VL Y49); hu23B12
B3: Humanized anti hu TSLP mAb 23B12 (VL K49) (antibody, human IgG1, kappa, V domains shown)
VH: QVQLVQSGAEVKKPGASVKVSCKASGYIFTDYAMHWVRQAPGQGLEWMGTFIPLLDTSDYNQNFKGRVTMTTDTSTSTAYMELRSLRSDDTAVYYCARMGVTHSYVMDAWGQGTLVTVSS
VL: EIVLTQSPGTLSLSPGERATLSCRASQPISISVHWYQQKPGQAPRLLIKFASQSISGIPDRFSGSGSGTDFTLTISRLEPEDFAVYYCQQTFSLPYTFGQGTKVEIKR
notes: Light chain variant of hu23B12 with K at position 49; human IgG1 / kappa; also called hu23B12(VL K49)
B4: hu-cy: humanized 23B12 VL/VH on cynomolgus constant domains (antibody)
heavy: QVQLVQSGAEVKKPGASVKVSCKASGYIFTDYAMHWVRQAPGQGLEWMGTFIPLLDTSDYNQNFKGRVTMTTDTSTSTAYMELRSLRSDDTAVYYCARMGVTHSYVMDAWGQGTLVTVSSASTKGPSVFPLAPSSRSTSESTAALGCLVKDYFPEPVTVSWNSGSLTSGVHTFPAVLQSSGLYSLSSVVTVPSSSLGTQTYVCNVNHKPSNTKVDKRVEIKTCGGGSKPPTCPPCPAPELLGGPSVFLFPPKPKDTLMISRTPEVTCVVVDVSQEDPDVKFNWYVNGAEVHHAQTKPRETQYNSTYRVVSVLTVTHQDWLNGKEYTCKVSNKALPAPIQKTISKDKGQPREPQVYTLPPSREELTKNQVSLTCLVKGFYPSDIVVEWESSGQPENTYKTTPPVLDSDGSYFLYSKLTVDKSRWQQGNVFSCSVMHEALHNHYTQKSLSLSPGK
light: EIVLTQSPGTLSLSPGERATLSCRASQPISISVHWYQQKPGQAPRLLIYFASQSISGIPDRFSGSGSGTDFTLTISRLEPEDFAVYYCQQTFSLPYTFGQGTKVEIKRTVAAPSVFIFPPSEDQVKSGTVSVVCLLNNFYPREASVKWKVDGVLKTGNSQESVTEQDSKDNTYSLSSTLTLSSTDYQSHNVYACEVTHQGLSSPVTKSFNRGEC
notes: also called hu-cy23B12; Cynoized anti hTSLP mAb 23B12 (huV-CynoC chimera)
B5: Rat anti-human TSLP antibody 23B12 (antibody, V domains shown)
VH: EEKLQQSGDDLVRPGAAVKMSCKASGYIFTDYAMHWVKQRPGQGLEWIGTFIPLLDTSDYNQNFKGRATLTADKSSNTAYMELSRLTSEDSAVYYCARMGVTHSYVMDAWGQGASVTVSS
VL: DIVLTQSPATLSVTPGESVSLSCRASQPISISVHWFQQKSNESPRLLIKFASQSISGIPSRFSGSGSGTDFTLNINRVESEDFSVYYCQQTFSLPYTFGTGTKLELKR
notes: Parental rat monoclonal antibody purified from hybridoma supernatant; the rat constant regions are not (a rat IgG2a isotype control is used beside it; the VL is of the kappa subclass); also called r23B12; rat 23B12
B6: cy-hu: cyno-ized 23B12 VL/VH on human constant domains (antibody)
heavy: not shown
light: DIQMTQSPSSLSASVGDRVTITCRASQPISISVHWYQQKPGKAPKLLIYFASQSISGVPSRFSGSGSGTDFTLTISSLQPEDFATYYCQQTFSLPYTFGQGTKVEIKRTVAAPSVFIFPPSDEQLKSGTASVVCLLNNFYPREAKVQWKVDNALQSGNSQESVTEQDSKDSTYSLSSTLTLSKADYEKHKVYACEVTHQGLSSPVTKSFNRGEC
notes: also called cy-hu23B12; Cynoized anti hTSLP mAb 23B12 (782+hIgG1/781hukappa)

Legend:
[1] = target: T1, Human TSLP (expression host not stated) (human, UniProt Q969D9 29-159); assay: cell-based or functional assay
[2] = target: T1, Human TSLP (expression host not stated, …); assay: summary of Tables 10 and 11 (BIAcore, KinExA, Ba/F3 assay)
Cynomolgus monkey TSLP [3] = target: T2, Cynomolgus monkey TSLP (cynomolgus monkey, UniProt A0A7N9CAT7 29-159); assay: SPR, BIAcore T100, as in Example 5 (TSLP immobilized)
T2 construct: also called cyno TSLP; cynoTSLP

[4] = target: T3, Recombinant human TSLP, expressed in E. coli (human, UniProt Q969D9 29-159); assay: KinExA, solution equilibrium, beads coated with biotinylated human TSLP; antigen R&D Systems 1398-TS
T3 construct: also called human TSLP E. coli; E. coli-B (biotinylated)

[5] = target: T1, Human TSLP (expression host not stated, …); assay: ELISA, mean of all 19 rows on human TSLP (HEK293 and E. coli pooled)
[6] = target: T3, Recombinant human TSLP, expressed in E. …; assay: ELISA, TSLP coated on plate, antibody titrated; E. coli
Cynomolgus monkey TSLP [7] = target: T2, Cynomolgus monkey TSLP; assay: ELISA, mean of the 6 rows above (cyno TSLP from HEK293)
[8] = target: T4, Recombinant human TSLP, expressed in HEK293 (human, UniProt Q969D9 29-159); assay: ELISA, TSLP coated on plate, antibody titrated; HEK293-B (biotinylated TSLP)
T4 construct: also called human TSLP HEK293; HEK293-B (biotinylated)

[9] = target: T1, Human TSLP (expression host not stated, …); assay: SPR, BIAcore T100, TSLP amine-coupled to CM5 chip, antibody injected, bivalent analyte model
Cynomolgus monkey TSLP [10] = target: T2, Cynomolgus monkey TSLP; assay: as above
[11] = target: T4, Recombinant human TSLP, expressed in …; assay: ELISA, direct coat of 200 ng TSLP instead of 100 ng, antibody titrated; HEK293
[12] = target: T3, Recombinant human TSLP, expressed in E. …; assay: ELISA, mean of the 7 rows above (E. coli, including E. coli-B)
[13] = target: T4, Recombinant human TSLP, expressed in …; assay: KinExA, solution equilibrium, beads coated with biotinylated human TSLP; TSLP from HEK293
[14] = target: T3, Recombinant human TSLP, expressed in E. …; assay: ELISA, direct coat of 200 ng TSLP instead of 100 ng, antibody titrated; E. coli
[15] = target: T3, Recombinant human TSLP, expressed in E. …; assay: KinExA, solution equilibrium, beads coated with biotinylated human TSLP; TSLP from E. coli
[16] = target: T3, Recombinant human TSLP, expressed in E. …; assay: ELISA, TSLP coated on plate, antibody titrated; E. coli-B (biotinylated TSLP)
[17] = target: T1, Human TSLP (expression host not stated, …); assay: SPR, BIAcore T100, as in Example 5 (TSLP immobilized)
[18] = target: T4, Recombinant human TSLP, expressed in …; assay: ELISA, mean of the 12 rows above (HEK293, including HEK293-B and HEK293-F)
[19] = target: T1, Human TSLP (expression host not stated, …); assay: ELISA, mean of the 5 rows above on human TSLP (HEK293 and E. coli pooled)
[20] = target: T4, Recombinant human TSLP, expressed in …; assay: ELISA, TSLP coated on plate, antibody titrated; HEK293
[21] = target: T3, Recombinant human TSLP, expressed in E. …; assay: KinExA, solution equilibrium, beads coated with biotinylated human TSLP; antigen R&D Systems 1398-TS; KinExA, not BIAcore
[22] = target: T4, Recombinant human TSLP, expressed in …; assay: ELISA, mean of the 3 rows above (HEK293-B, HEK293, HEK293-F); mean of n = 3: HEK293-B, HEK293 and HEK293-F human TSLP
Cynomolgus monkey TSLP [23] = target: T2, Cynomolgus monkey TSLP; assay: cell-based or functional assay
[24] = target: T3, Recombinant human TSLP, expressed in E. …; assay: cell-based or functional assay
[25] = target: T4, Recombinant human TSLP, expressed in …; assay: cell-based or functional assay
[26] = target: T1, Human TSLP (expression host not stated, …); assay: ELISA, mean of all 5 rows on human TSLP (HEK293 and E. coli pooled)

Binder	Kd (Cynomolgus monkey TSLP [3])	Kd [4]	EC50, inhibition of TSLP-induced proliferation of Ba/F3 transfectants; TSLP hu, TSLPR hu [1]	EC50 [8]	Kd [9]	Kd (Cynomolgus monkey TSLP [10])	Kd [13]	Kd [15]	EC50 [16]	Kd [17]	EC50 [20]	other results
B1	1.16 nM and 2.51 nM	0.052 nM										EC50, inhibition of TSLP-induced proliferation of Ba/F3 transfectants; TSLP hu, TSLPR cyno [1]: 0.03 nM and 0.05 nM; fold reduction in binding against hu23B12 [2]: 5 fold; fold reduction in binding against parental rat 23B12 [2]: 10 fold
B2	0.132 nM	0.0017 nM	7.6 nM	0.22 nM	0.111 nM	0.132 nM	2.1 pM	1.7 pM	0.064 nM and 0.085 nM	0.111 nM		EC50 [5]: 0.11 nM; EC50 [6]: 0.11 nM and 0.06 nM; EC50 (Cynomolgus monkey TSLP [7]): 0.31 nM; EC50 [11]: 0.073 nM; EC50 [12]: 0.07 nM; EC50 [14]: 0.061 nM and 0.029 nM; EC50 [18]: 0.14 nM
B3				0.12 nM			1 pM		0.038 nM and 0.05 nM		0.034 nM	EC50 [19]: 0.05 nM
B4	0.114 nM	0.0014 nM	5.3 nM							0.106 nM		
B5	0.086 nM and 0.112 nM			0.79 nM	0.064 nM	0.086 nM	0.22 pM	0.47 pM	0.4 nM and 0.39 nM	0.064 nM and 0.126 nM and 0.114 nM	0.37 nM	Kd [21]: 0.47 pM; EC50 [22]: 0.47 nM; EC50 (mean of the 4 rows above), inhibition of TSLP-induced proliferation of Ba/F3-TSLPR-IL7Ra cells; TSLP cyno, HEK293 (Cynomolgus monkey TSLP [23]): 0.56 nM; EC50, inhibition of TSLP-induced proliferation of Ba/F3-TSLPR-IL7Ra cells (Alamar Blue); TSLP cyno, HEK293 (Cynomolgus monkey TSLP [23]): 0.45 nM and 0.42 nM and 0.61 nM and 0.77 nM; EC50 (mean of the 8 rows above), inhibition of TSLP-induced proliferation of Ba/F3-TSLPR-IL7Ra cells; TSLP human, E. coli [24]: 3.01 nM; EC50 (mean of the 5 rows above), inhibition of TSLP-induced proliferation of Ba/F3-TSLPR-IL7Ra cells; TSLP human, HEK293 [25]: 0.11 nM; EC50 [26]: 0.44 nM
B6	1.2 nM	0.063 nM	3.9 nM							0.556 nM		
